Read-outs that look alike come from different tables or passages of the source.
T1: Cynomolgus monkey CD3 protein (cynomolgus monkey, UniProt Q95LI5 22-117)
T1 sequence (looked up): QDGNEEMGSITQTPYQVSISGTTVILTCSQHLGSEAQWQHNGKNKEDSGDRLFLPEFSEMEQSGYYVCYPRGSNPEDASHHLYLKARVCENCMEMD

T2: human CEA (human, UniProt P06731 35-702)
T2 sequence (looked up): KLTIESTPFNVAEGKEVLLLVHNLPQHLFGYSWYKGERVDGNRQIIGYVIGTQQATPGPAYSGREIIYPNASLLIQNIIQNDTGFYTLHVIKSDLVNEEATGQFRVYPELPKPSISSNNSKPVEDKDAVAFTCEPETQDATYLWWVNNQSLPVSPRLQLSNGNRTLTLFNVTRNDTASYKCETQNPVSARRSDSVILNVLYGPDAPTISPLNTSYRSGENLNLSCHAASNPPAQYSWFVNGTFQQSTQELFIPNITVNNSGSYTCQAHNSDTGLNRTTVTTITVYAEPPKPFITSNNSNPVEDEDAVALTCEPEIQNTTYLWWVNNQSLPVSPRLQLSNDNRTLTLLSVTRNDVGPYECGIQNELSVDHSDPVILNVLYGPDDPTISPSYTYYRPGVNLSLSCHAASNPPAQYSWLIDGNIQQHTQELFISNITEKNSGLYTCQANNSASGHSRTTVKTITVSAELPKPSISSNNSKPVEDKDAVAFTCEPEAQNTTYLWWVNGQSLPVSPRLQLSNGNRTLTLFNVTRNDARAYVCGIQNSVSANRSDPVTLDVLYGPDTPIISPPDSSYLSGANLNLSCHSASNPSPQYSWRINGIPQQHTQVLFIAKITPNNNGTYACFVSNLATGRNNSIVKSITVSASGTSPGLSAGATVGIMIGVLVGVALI


How the values were obtained:
[1] = target: T1, Cynomolgus monkey CD3 protein; test: ELISA on cynomolgus monkey CD3 protein, curve fit
human CD3 [2] = target: T3, human CD3 (human, UniProt P07766 23-207); test: cell-based or functional assay
T3 sequence (P07766 23-207): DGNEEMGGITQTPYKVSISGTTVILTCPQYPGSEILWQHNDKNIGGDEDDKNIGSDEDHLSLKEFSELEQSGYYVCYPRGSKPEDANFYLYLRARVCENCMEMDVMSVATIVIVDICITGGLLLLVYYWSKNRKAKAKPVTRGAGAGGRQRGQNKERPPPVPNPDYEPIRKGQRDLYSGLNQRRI

human CEA [3] = target: T2, human CEA; test: cell-based or functional assay
human CD3 [4] = target: T3, human CD3; test: cell-based or functional assay; remark: listed apart in the source
human CEA [5] = target: T2, human CEA; test: cell-based or functional assay; remark: listed apart in the source

Row | Binder | Bottom (best-fit) [1] | LogEC50 [1] | Span (best-fit) [1] | Top (best-fit) [1] | NFAT-luciferase in Jurkat cells: Bottom (human CD3 [2]) | NFAT-luciferase in Jurkat cells: LogEC50 (human CD3 [2]) | NFAT-luciferase in Jurkat cells: Span (human CD3 [2]) | NFAT-luciferase in Jurkat cells: Top (human CD3 [2]) | lysis of LS-174T cells by PBMC: Bottom (human CEA [3]) | lysis of LS-174T cells by PBMC: LogEC50 (human CEA [3]) | lysis of LS-174T cells by PBMC: Span (human CEA [3]) | lysis of LS-174T cells by PBMC: Top (human CEA [3]) | NFAT-luciferase in Jurkat cells: Bottom (human CD3 [4]) | NFAT-luciferase in Jurkat cells: LogEC50 (human CD3 [4]) | NFAT-luciferase in Jurkat cells: Span (human CD3 [4]) | NFAT-luciferase in Jurkat cells: Top (human CD3 [4]) | lysis of KATO III cells by PBMC: Bottom (human CEA [5]) | lysis of KATO III cells by PBMC: LogEC50 (human CEA [5]) | lysis of KATO III cells by PBMC: Span (human CEA [5]) | lysis of KATO III cells by PBMC: Top (human CEA [5])
1 | CEA/CD3 parental BsAb (bispecific antibody, V domains shown, also called hT84.66/SP34 bispecific antibody; CEA/CD3 parental bispecific antibody; copies: 2 + 2 + 2 + 2) VH 1: EVQLVESGGGLVQPGGSLRLSCAASGFNIKDTYMHWVRQAPGKGLEWVARIDPAQGNTKYADSVKGRFTISADTSKNTAYLQMNSLRAEDTAVYYCAPFGYYVSDYAMAYWGQGTLVTVSS VL 1: DIQLTQSPSSLSASVGDRVTITCRAGESVDIFGVGFLHWYQQKPGKAPKLLIYRASNLESGVPSRFSGSGSRTDFTLTISSLQPEDFATYYCQQTNEDPYTFGQGTKVEIK VH 2: not shown VL 2: not shown | 0.0164 | -1.65 | 4.09 | 4.1 | 39.9 | -1.52 | 1280 | 1320 | 13.8 | -2.69 | 91.7 | 106 | -1040 | -0.58 | 121000 | 120000 | 60.1 | -1.85 | 53 | 113
2 | CEA/CD3OPT1a3b (bispecific antibody, V domains shown, Same format as m1; also called OPT SP34 1a3b; copies: 2 + 2 + 2 + 2) VH 1: EVQLVESGGGLVQPGGSLRLSCAASGFNIKDTYMHWVRQAPGKGLEWVARIDPAQGNTKYADSVKGRFTISADTSKNTAYLQMNSLRAEDTAVYYCAPFGYYVSDYAMAYWGQGTLVTVSS VL 1: DIQLTQSPSSLSASVGDRVTITCRAGESVDIFGVGFLHWYQQKPGKAPKLLIYRASNLESGVPSRFSGSGSRTDFTLTISSLQPEDFATYYCQQTNEDPYTFGQGTKVEIK VH 2: EVQLVESGGGLVKPGGSLKLSCAASGFTFSTYAMNWVRQAPGKGLEWVARIRSKYNNYATYYADSVKDRFTISRDDSKNTAYLQMNNLRTEDTAVYYCVRHGNWGNSYISYWAYWGQGTTVTVSS VL 2: not shown | 0.00304 | -1.84 | 4.03 | 4.03 | – | – | – | – | 12.1 | -2.69 | 96.6 | 109 | 1600 | -0.102 | 62800 | 64500 | 64.6 | -0.946 | 39.4 | 104
3 | CEA/CD3OPT1a3b2a (bispecific antibody, V domains shown, Same format as m1; also called OPT SP34 1a3b2a; copies: 2 + 2 + 2 + 2) VH 1: EVQLVESGGGLVQPGGSLRLSCAASGFNIKDTYMHWVRQAPGKGLEWVARIDPAQGNTKYADSVKGRFTISADTSKNTAYLQMNSLRAEDTAVYYCAPFGYYVSDYAMAYWGQGTLVTVSS VL 1: DIQLTQSPSSLSASVGDRVTITCRAGESVDIFGVGFLHWYQQKPGKAPKLLIYRASNLESGVPSRFSGSGSRTDFTLTISSLQPEDFATYYCQQTNEDPYTFGQGTKVEIK VH 2: EVQLVESGGGLVKPGGSLKLSCAASGFTFSTYAMNWVRQAPGKGLEWVARIRSNYNNYATYYADSVKDRFTISRDDSKNTAYLQMNNLRTEDTAVYYCVRHGNWGNSYISYWAYWGQGTTVTVSS VL 2: not shown | 0.00337 | -1.81 | 4.06 | 4.06 | – | – | – | – | 11.3 | -1.92 | 93.6 | 105 | 3100 | -0.27 | 10700 | 13800 | 63.8 | -0.332 | 34.6 | 98.5
4 | CEA/CD3OPT1a (bispecific antibody, V domains shown, Same format as m1; also called OPTSP34 1a; copies: 2 + 2 + 2 + 2) VH 1: EVQLVESGGGLVQPGGSLRLSCAASGFNIKDTYMHWVRQAPGKGLEWVARIDPAQGNTKYADSVKGRFTISADTSKNTAYLQMNSLRAEDTAVYYCAPFGYYVSDYAMAYWGQGTLVTVSS VL 1: DIQLTQSPSSLSASVGDRVTITCRAGESVDIFGVGFLHWYQQKPGKAPKLLIYRASNLESGVPSRFSGSGSRTDFTLTISSLQPEDFATYYCQQTNEDPYTFGQGTKVEIK VH 2: EVQLVESGGGLVKPGGSLKLSCAASGFTFSTYAMNWVRQAPGKGLEWVARIRSKYNNYATYYADSVKDRFTISRDDSKNTAYLQMNNLRTEDTAVYYCVRHGNFGNSYISYWAYWGQGTTVTVSS VL 2: not shown | 0.0666 | -1.32 | 4.02 | 4.09 | 49.9 | -0.801 | 1150 | 1200 | 17.3 | -2.81 | 89.2 | 106 | 1570 | -0.0022 | 130000 | 132000 | 52.5 | -0.944 | 51.7 | 104

The next lines start with the values.

Row | Bottom (best-fit) [1] | LogEC50 [1] | Span (best-fit) [1] | Top (best-fit) [1] | NFAT-luciferase in Jurkat cells: Bottom (human CD3 [2]) | NFAT-luciferase in Jurkat cells: LogEC50 (human CD3 [2]) | NFAT-luciferase in Jurkat cells: Span (human CD3 [2]) | NFAT-luciferase in Jurkat cells: Top (human CD3 [2]) | lysis of LS-174T cells by PBMC: Bottom (human CEA [3]) | lysis of LS-174T cells by PBMC: LogEC50 (human CEA [3]) | lysis of LS-174T cells by PBMC: Span (human CEA [3]) | lysis of LS-174T cells by PBMC: Top (human CEA [3]) | NFAT-luciferase in Jurkat cells: Bottom (human CD3 [4]) | NFAT-luciferase in Jurkat cells: LogEC50 (human CD3 [4]) | NFAT-luciferase in Jurkat cells: Span (human CD3 [4]) | NFAT-luciferase in Jurkat cells: Top (human CD3 [4]) | lysis of KATO III cells by PBMC: Bottom (human CEA [5]) | lysis of KATO III cells by PBMC: LogEC50 (human CEA [5]) | lysis of KATO III cells by PBMC: Span (human CEA [5]) | lysis of KATO III cells by PBMC: Top (human CEA [5]) | Binder
5 | – | – | – | – | – | – | – | – | – | – | – | – | 3450 | -0.0275 | 2670 | 6120 | – | – | – | – | CEA/CD3OPT1a3b2b2 (bispecific antibody) chain 1: EVQLVESGGGLVQPGGSLRLSCAASGFNIKDTYMHWVRQAPGKGLEWVARIDPAQGNTKYADSVKGRFTISADTSKNTAYLQMNSLRAEDTAVYYCAPFGYYVSDYAMAYWGQGTLVTVSS chain 2: DIQLTQSPSSLSASVGDRVTITCRAGESVDIFGVGFLHWYQQKPGKAPKLLIYRASNLESGVPSRFSGSGSRTDFTLTISSLQPEDFATYYCQQTNEDPYTFGQGTKVEIK chain 3: EVQLVESGGGLVKPGGSLKLSCAASGFTFSTYAMNWVRQAPGKGLEWVARIRSKYNNYATYFADSVKDRFTISRDDSKNTAYLQMNNLRTEDTAVYYCVRHGNWGNSYISYWAYWGQGTTVTVSSQSVLTQPPSVSAAPGQRVTISCSGSTGAVTSGYYPNWYQQLPGTAPRLLIGGTKFLAPGTPDRFSGSSKSTSAALAISGVQSEDEADYYCALWYSNRWVFGGGTKLTVLG
6 | – | – | – | – | 119 | -5.66 | -41.4 | 78 | – | – | – | – | – | – | – | – | – | – | – | – | CEA/CD3OPT3 (bispecific antibody, V domains shown) VH 1: EVQLVESGGGLVQPGGSLRLSCAASGFNIKDTYMHWVRQAPGKGLEWVARIDPAQGNTKYADSVKGRFTISADTSKNTAYLQMNSLRAEDTAVYYCAPFGYYVSDYAMAYWGQGTLVTVSS VL 1: DIQLTQSPSSLSASVGDRVTITCRAGESVDIFGVGFLHWYQQKPGKAPKLLIYRASNLESGVPSRFSGSGSRTDFTLTISSLQPEDFATYYCQQTNEDPYTFGQGTKVEIK VH 2: EVQLVESGGGLVKPGGSLKLSCAASGFTFNKYAMNWVRQAPGKGLEWVARIRSKYNNYATYYADSVKDRFTISRDDSKNTAYLQMNNLRTEDTAVYYCVRHGQWGNSYISYWAYWGQGTTVTVSS VL 2: not shown
7 | – | – | – | – | 88.9 | -2.09 | -30.4 | 58.5 | – | – | – | – | – | – | – | – | – | – | – | – | CEA/CD3OPT2 (bispecific antibody, V domains shown) VH 1: EVQLVESGGGLVQPGGSLRLSCAASGFNIKDTYMHWVRQAPGKGLEWVARIDPAQGNTKYADSVKGRFTISADTSKNTAYLQMNSLRAEDTAVYYCAPFGYYVSDYAMAYWGQGTLVTVSS VL 1: DIQLTQSPSSLSASVGDRVTITCRAGESVDIFGVGFLHWYQQKPGKAPKLLIYRASNLESGVPSRFSGSGSRTDFTLTISSLQPEDFATYYCQQTNEDPYTFGQGTKVEIK VH 2: EVQLVESGGGLVKPGGSLKLSCAASGFTFNKYAMNWVRQAPGKGLEWVARIRSNYNNYATTFADSVKDRFTISRDDSKNTAYLQMNNLRTEDTAVYYCVRHGNFGNSYISYWAYWGQGTTVTVSS VL 2: not shown
8 | 0.00466 | -1.94 | 4.01 | 4.02 | 52.8 | -1.66 | 1400 | 1460 | 13.1 | -2.86 | 92.2 | 105 | – | – | – | – | 54.7 | -2.21 | 48.1 | 103 | CEA/CD3OPT3a (bispecific antibody, V domains shown, Same format as m1; copies: 2 + 2 + 2 + 2) VH 1: EVQLVESGGGLVQPGGSLRLSCAASGFNIKDTYMHWVRQAPGKGLEWVARIDPAQGNTKYADSVKGRFTISADTSKNTAYLQMNSLRAEDTAVYYCAPFGYYVSDYAMAYWGQGTLVTVSS VL 1: DIQLTQSPSSLSASVGDRVTITCRAGESVDIFGVGFLHWYQQKPGKAPKLLIYRASNLESGVPSRFSGSGSRTDFTLTISSLQPEDFATYYCQQTNEDPYTFGQGTKVEIK VH 2: not shown VL 2: not shown

Source: patent US20230075633A1 (SHANDONG BOAN BIOTECHNOLOGY, published 2023)
